Source: paper PMC10611586, “Molecular basis for ubiquitin/Fubi cross-reactivity in USP16 and USP36” (Nature Chemical Biology, 2023)

B1: USP36^81–424 (catalytic domain, shorter construct) (enzyme, human, UniProt Q9P275 81-424, looked up)
chain: ARRQGSEHTYESCGDGVPAPQKVLFPTERLSLRWERVFRVGAGLHNLGNTCFLNATIQCLTYTPPLANYLLSKEHARSCHQGSFCMLCVMQNHIVQAFANSGNAIKPVSFIRDLKKIARHFRFGNQEDAHEFLRYTIDAMQKACLNGCAKLDRQTQATTLVHQIFGGYLRSRVKCSVCKSVSDTYDPYLDVALEIRQAANIVRALELFVKADVLSGENAYMCAKCKKKVPASKRFTIHRTSNVLTLSLKRFANFSGGKITKDVGYPEFLNIRPYMSQNNGDPVMYGLYAVLVHSGYSCHAGHYYCYVKASNGQWYQMNDSLVHSSNVKVVLNQQAYVLFYLRIP
notes: USP36, human, catalytic domain, residues 81-424; also called shorter USP36^81–424 construct; source: E. coli Rosetta2(DE3)pLacI, purified (HisTrap, 3C cleavage, cation exchange)
B2: USP2^258–605 (catalytic domain) (enzyme, human, UniProt O75604 258-605, looked up)
chain: MNSKSAQGLAGLRNLGNTCFMNSILQCLSNTRELRDYCLQRLYMRDLHHGSNAHTALVEEFAKLIQTIWTSSPNDVVSPSEFKTQIQRYAPRFVGYNQQDAQEFLRFLLDGLHNEVNRVTLRPKSNPENLDHLPDDEKGRQMWRKYLEREDSRIGDLFVGQLKSSLTCTDCGYCSTVFDPFWDLSLPIAKRGYPEVTLMDCMRLFTKEDVLDGDEKPTCCRCRGRKRCIKKFSIQRFPKILVLHLKRFSESRIRTSKLTTFVNFPLRDLDLREFASENTNHAVYNLYAVSNHSGTTMGGHYTAYCRSPGTGEWHTFNDSSVTPMSSSQVRTSDAYLLFYELASPPSRM
notes: USP2, human, catalytic domain, residues 258-605; also called recombinant USP2; source: E. coli Rosetta2(DE3)pLacI, purified (HisTrap, 3C cleavage, SEC)
B3: USP36^81–461 (catalytic domain, longer construct) (enzyme, human, UniProt Q9P275 81-461, looked up)
chain: ARRQGSEHTYESCGDGVPAPQKVLFPTERLSLRWERVFRVGAGLHNLGNTCFLNATIQCLTYTPPLANYLLSKEHARSCHQGSFCMLCVMQNHIVQAFANSGNAIKPVSFIRDLKKIARHFRFGNQEDAHEFLRYTIDAMQKACLNGCAKLDRQTQATTLVHQIFGGYLRSRVKCSVCKSVSDTYDPYLDVALEIRQAANIVRALELFVKADVLSGENAYMCAKCKKKVPASKRFTIHRTSNVLTLSLKRFANFSGGKITKDVGYPEFLNIRPYMSQNNGDPVMYGLYAVLVHSGYSCHAGHYYCYVKASNGQWYQMNDSLVHSSNVKVVLNQQAYVLFYLRIPGSKKSPEGLISRTGSSSLPGRPSVIPDHSKKNIGNGI
notes: also called recombinant USP36; source: E. coli Rosetta2(DE3)pLacI, purified (HisTrap, 3C cleavage, cation exchange)
B4: USP16^191–823 (catalytic domain) (enzyme, human, UniProt Q9Y5T5 191-823, looked up)
chain: CQITVKGLSNLGNTCFFNAVMQNLSQTPVLRELLKEVKMSGTIVKIEPPDLALTEPLEINLEPPGPLTLAMSQFLNEMQETKKGVVTPKELFSQVCKKAVRFKGYQQQDSQELLRYLLDGMRAEEHQRVSKGILKAFGNSTEKLDEELKNKVKDYEKKKSMPSFVDRIFGGELTSMIMCDQCRTVSLVHESFLDLSLPVLDDQSGKKSVNDKNLKKTVEDEDQDSEEEKDNDSYIKERSDIPSGTSKHLQKKAKKQAKKQAKNQRRQQKIQGKVLHLNDICTIDHPEDSEYEAEMSLQGEVNIKSNHISQEGVMHKEYCVNQKDLNGQAKMIESVTDNQKSTEEVDMKNINMDNDLEVLTSSPTRNLNGAYLTEGSNGEVDISNGFKNLNLNAALHPDEINIEILNDSHTPGTKVYEVVNEDPETAFCTLANREVFNTDECSIQHCLYQFTRNEKLRDANKLLCEVCTRRQCNGPKANIKGERKHVYTNAKKQMLISLAPPVLTLHLKRFQQAGFNLRKVNKHIKFPEILDLAPFCTLKCKNVAEENTRVLYSLYGVVEHSGTMRSGHYTAYAKARTANSHLSNLVLHGDIPQDFEMESKGQWFHISDTHVQAVPTTKVLNSQAYLLFYERIL
notes: USP16, human, catalytic domain, residues 191-823; also called recombinant USP16; source: E. coli Rosetta2(DE3)pLacI, purified (HisTrap, 3C cleavage, reverse Ni-NTA, anion exchange, SEC)
B5: USP42^70–446 (catalytic domain) (enzyme, human, UniProt Q9H9J4 70-446, looked up)
chain: DKSKPSPQKDQALGDGIAPPQKVLFPSEKICLKWQQTHRVGAGLQNLGNTCFANAALQCLTYTPPLANYMLSHEHSKTCHAEGFCMMCTMQAHITQALSNPGDVIKPMFVINEMRRIARHFRFGNQEDAHEFLQYTVDAMQKACLNGSNKLDRHTQATTLVCQIFGGYLRSRVKCLNCKGVSDTFDPYLDITLEIKAAQSVNKALEQFVKPEQLDGENSYKCSKCKKMVPASKRFTIHRSSNVLTLSLKRFANFTGGKIAKDVKYPEYLDIRPYMSQPNGEPIVYVLYAVLVHTGFNCHAGHYFCYIKASNGLWYQMNDSIVSTSDIRSVLSQQAYVLFYIRSHDVKNGGELTHPTHSPGQSSPRPVISQRVVTNKQ
notes: USP42, human, catalytic domain, residues 70-446; also called recombinant USP42; source: E. coli Rosetta2(DE3)pLacI, purified (HisTrap, 3C cleavage, reverse Ni-NTA, cation exchange)

Columns and labels:
Details in all cases: both partners purified
[1] = target: T1, ubiquitin-PA (untagged, wild type) (human, UniProt P0CG47 1-75, C-terminal propargylamine (PA) warhead); experiment: activity-based probe labelling (covalent conjugate), SDS-PAGE; purified protease 2.5 µM and probe 10 µM, 1 h at 37 °C; 20 mM Tris pH 8.0, 300 mM NaCl, 2 mM DTT, 5% glycerol; SDS-PAGE and Coomassie staining
T1 construct: ubiquitin, human, residues 1-75 of the 76-residue ubiquitin; also called Ub-PA; wild-type ubiquitin-PA

[2] = target: T2, Fubi-PA (untagged, wild type) (human, UniProt P62861 1-73, C-terminal propargylamine (PA) warhead); experiment: intact protein LC-MS; covalent USP36~probe complexes analysed by intact protein mass spectrometry
T2 construct: Fubi, human, residues 1-73 of the 74-residue Fubi; also called wild-type Fubi-PA; Fubi-based probe
T2 sequence (P62861 1-73): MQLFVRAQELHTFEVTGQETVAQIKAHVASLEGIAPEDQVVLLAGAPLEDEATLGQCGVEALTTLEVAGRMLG

[3] = target: T1, ubiquitin-PA (untagged, wild type); experiment: as above

| Binder | binding result [1] | stoichiometry N [2] | stoichiometry N [3] |
| --- | --- | --- | --- |
| B1 | binds | – | – |
| B2 | binds | – | – |
| B3 | – | 1 | 1 |
| B4 | binds | – | – |
| B5 | binds | – | – |
